The domain aggregation screens of Martell et al. (2025)

Assay: soluble fraction after stress (log2 fold change); higher = more stays soluble; pooled small domains, quantitative proteomics
Conditions: stress: 50 degC
Procedure, shortened: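 Each library was heated to 50°C as a stress step. The libraries, made up of small protein domains, were pooled and analysed at high throughput by quantitative proteomics. The reported value is the base-two logarithm of the fold change in each protein's soluble amount after stress, taken as a measure of aggregation propensity. The higher the value, the more protein stays in solution.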

Sequence	soluble fraction (log2)
HMQTFNADDIEPIIKEILQENPKAISDFLTGNENVVKFLLGQVMKNTKGKANPKVIEELLINQLRELNN	0.00183
HMQTGYHVRITASTLNVRRDHSASSAVATQVRRGEVYTIVDEYNNGGTLWGKLKSGAGWIALKYTQS	-1.81
HMQTTITITNTVTGQKAQFPPPFNPMSLSKIGVDETFEKEVFVDGVDTFGYGLDGYLTFYELKDFLRSYQ	-2.5
HMQVEYTRGELLQDLKEENVLYATITPSRETPTGEVDFVFKDKSIKTLYVTDVSEIEGLLMDYGIDPEVKK	-0.0511
HMQVITEPFQEKYREFINMSTVTQRLEERETLSFTAQTVEGRWLTIIIVPQGYDKTGKLSTVLVANR	0.179
HMQVSDEGAIQLLVQKAIEENPQAIEAFRGGKTSALGPVVGWVMKQSKGAANPTMVKTLLEKAI	0.293
HMQVVVEKSKEKVIISGNQYYIHIVKKGETAFSIAKAYGITVDELVKNNPSAATVLKEGQALRIPVVE	0.119
HMQYDESSQLGERFLNQALNALKADPDKVGDAQWEKLLKENSAKSRQEVLADIGLGKQLAIVIARELLS	-0.115
HMQYPSSLDSRAKQSLYDNLERNEILALALDNVIQSNKLDGWRDGGIKERKLRLAINNLLKNDEHTDNIME	-0.0155
HMQYQIITENGKQYYLYTVQKSEGFYSIGKRFEITNDEIIKANPEAALGLKLGQVLKIPVYK	-0.331
HMRAAKSEDTRTRLIEGGMALFGQKGYNATGIKDITDAAGVPKGSFYNYFASKEDFGAEIIHSY	0.122
HMRAEELEQFVERLKNEVMNNFPLKELSDNELREKIENLVEIRLANVYVSIEQRVAIAEQIYSSIR	-0.0429
HMRAERVQITDPYIELHTGPGRGFPIFFVAPREQWISIELRHTDWFKVRAVGGQVGWVQRKQLEST	-0.455
HMRAGHDFEALKHIESSLDKHLTDEGIKIKSEKRGAIVARWYQSHVEGREVTDDDVHTWIELFF	-3.5
HMRAPIGFRISNRRKSLKISQVALARLVGISPSYLNLIENNKRDVGGALLQRVALHLNIDIDDL	-3.02
HMRARTLSTTGGESLLTLAESLYPDDDRARARFIEATAAANPKLFADIAALTRVLPAGTTLRMPDLRA	0.0417
HMRARTQYWPFVEEKAAELKLPLHLVNVEPLFGEQKVVVHYTANGRIDFRELVHLLARRFHARIEMR	0.212
HMRATLTDETARVVQEPTSESISLTSLRKGEEFEIGKVIRKKKEVWVTVTTSSGVKGYISGDTHIF	-0.0573
HMRAVFEQLRIGQTLAGVVKAQEKGFSLVEIDGQTVAMRLPHPAAVGDTLRLRFAGHMPQAVFLLES	-0.561
HMRAVPSIAFVTQKLIEQGVTMEQLVRSLLLDHEEYENDDSLERTADELFGKARMIISNYTPE	-1.01
HMRDADRYAFMQENVEDFAKDMRRKHMTYDVLYEEYIRRTDNPYGYTQFKAIVQEYEKNHDYK	-0.141
HMRDGYEKPTEVGEGGRNPAMLSYIGHLRAKGHLSEEDIRSMAHGFNATTFDPPLDRDEVDGLVSRY	0.124
HMRDITAQSNASELYFEERDLEAFIEKLERLYPEIRYVNRLMIHSWGQQVVRFFDPDGNLIEVGTP	-0.145

Sequence	soluble fraction (log2)
HMRDKTMLGNVIRTRRKKMNLTLEELSKQVGITSGGLSQIERGLVDPSLSVLRRISRALNLPMNVMFSE	-0.281
HMRDLAEAETILDALPTRLRKIVRWRHLEGLSQTEIAARLEISQMHVSRLYRRAISMIHASLADD	-0.0123
HMREEQELFRKLLEVNGIGPKVAAGMLAGGRPEDVVSAIRREDVAWLTKLPGIGRKTAQRIVLDLKDKLD	-0.0754
HMREPQMVTVNGDKVTHGHAYRSNVNPEDWYFTARINGQQLKPQKMEPADVAAYDKKEIGVPELMQR	-0.0941
HMRESPYRRVAKFLLLIGTAEAAKIVSRLDQDQVEKVMLELSGIRSVPRDEATVILAEFESLLQQAR	-1.47
HMRESRLFQILYQLLTKKKVTAANLAKQFEVSVRTIYRDIDALSSSGIPIYASQGKNGGIQLDEDF	-1.11
HMRETELPVTIISAGRILAENLHLAGRDGGWLEAELKRRSLTAEQVLLLTVDAAGTVYLVRKEDL	-0.0641
HMREWPLWEIFIRGQHGLNHRHVGSLHAPDAAMAIGNARDVYTRRNEGVSIWAVRSADVVASVPSE	-2.33
HMRGADNAASILKEVGPHPEDGKPITVRSGRYGPYVKHGTTNATLPKDIKPEEITLDEAIALINERVAKG	-0.243
HMRGGKGTVPDVTGMDAAAAVRILEKAGMNVAYIRGAGFVAEQTPAAGTKLKKGDKAYITLSWK	-0.0707
HMRGGWESLTDREREIAVLAAEGHSNRTIASTLFISDRTVQSHVSRALRALGVDSRTGIPSLVTTATR	-0.0688
HMRGWGTVKRRTPKSGRYRASYIGPDGKRYAADHTYAAKVDADAWLSSERALITAGVWTPPTDRVT	-0.286
HMRHLSVPSQDTQQVLQRLKVELALPEGARVRSDPSDPGRRLIPFTESVPQEMIDQYPVVSINI	0.0489
HMRIAGIDIPDNKRGEVALTYIFGIGRSSSKKILKSAGIDSDKQIGKWTDDESNLVRKLIRDEYTIEGDL	-0.412
HMRIASANAIYDELLNKRDDAKLAELKQEDINLYALYILQNGSADERAALENTQGIDVVLKEIINLQNG	-0.309
HMRIGINDRIHEIVDVLRLKKSTPFEDLFSGLVTRFDLVITFLALLEMGKLRLLRLYQTDPLAPLHVEYTG	-0.152
HMRILDFPALKTEFDQLTKDLMAKYPEDGADRVRAIIETVLGPGKKVGALQPHQAELLAEVNTSLKANL	0.153
HMRILGIDPGTRITGYGIIDIEGNRLRHVDNGIIKTRSSDALPLRLKVIYDGLTAVLKQYSPQAV	0.0465
HMRIQTVDYNTFISMVEDGKVDAAEIQQQENRILFSDQDQKVYKTAMVPDDDLTQRLLDAGVSTNG	0.274
HMRISKRQLILESAAAIINEKGADYLTLDAVAQRAGISKGGLFYHFKSKDELIKELVNYANN	-0.14
HMRISLKAQVYEYLKQAIINGDLKVGEIYSEQYFADKLSISRTPVREAILQLQHENMVEVKANRGIIVK	-0.472
HMRITTKNYFKAISEVGFENLPEVLKKSHLVIEEKTNKGNDWGIYENDAEAKKVFDLAFDKLEEFIDRKED	0.45
HMRIVQTDYRNFLSQVESGAVRSVQIDETQIRYTALDSGGKEIVYNTGKVDDPGLVNRLYDAGVEFSQVIP	0.0657

Sequence	soluble fraction (log2)
HMRKATEVPFTAFKDSIENSHGKLSKAGLARHLADEYGMSQRNMERRINNLIDNKTIKYGNEGGLVWIG	-0.0291
HMRKDWTPGAFVEAFVNDTPATRSTILAKAVSAGLSRWAADNLLRTADNDGLMVRQGSGKRNEPFTYRRGP	-0.196
HMRKEEFIRELVLELKQNVSEQVILEQKRFYEEYILTEVRGGKTEEEVIASLSEPRLLAKSIIDAAEAGGD	-0.155
HMRKKDGEAYVLPRPLKKGDSVLIYDIDKKGTVLQPPEKGGKTALIQAGIIQTRVPVSNLRLLE	0.383
HMRKKIIAQTLEEIRKSKGYSQKQVAAFIKVKPTTYNTYESGRTEPPAEILVRLSYLYRTPVDTLVQRDR	-2.07
HMRKMNDAVFYVEMSRPKRGYYTATYKLITRNPNSLPEHEITRRFFQMLEETIRKNPPYYLWTH	-0.328
HMRKPISQEIVDEVLKLAKNNPDWGYDRIAGVMKYLKYDVSATTVRHILDDNGIVPDPERRLR	0.333
HMRKRLLQLVHIGKSQLGMDDETYRSLLSQQFYQNSAKNISYSELVKLVKILQQKGAKIRLPH	-1.9
HMRKVVLEEKEANYYAEPNSESELLGVLKRGIHLTVTDVKKEAGSDGWVKLVHPDGQEGWISGRARIRV	-0.0551
HMRKYKIKEELPDNIYKIIQDNPGIVQKDIYDILGREYQQNISSYIYSMDKNGVIKRDKHGNSYKLYL	-0.318
HMRLATSELVYRIRALIRDQELQPGERLGSERALAQSLGISRSDLRMALAVLEASHEVIRKIGRAGGIVVS	-3.14
HMRLHSSGEDYLKAIFILEAQHSSVRSVEVAEYMNVSKASVSHAVALLKKNGFLKMNQDYDLTER	0.0124
HMRLIALPSVTDISIRQAEATLMSIGIKVSSIQYAPSEYKDLVLEVKYRGQSIIQGAKIPEGSSVVLVAGN	-1.56
HMRLPLYLALAQTLRQEIDAKQYKIGAHLPPEDQLVVKYGVSRHTVRQALQELKNEGLITSKAGIGTIVSS	-0.666
HMRLPQEVWEKIRAAYEAHGLSFSELAEMYGVNKSNISRRAKAEGWNQAETQRLITATVENE	0.267
HMRLREETRKVDKTGLIQVDGRHYRVPDEYSQKDVQILMDDNSIMVYRKGDFVIELDKETSVYMPH	0.214
HMRMETRILTADESGIRLDAFLASRLAVSRSLAASLIDDGNVTLNGTVPKKKTAVNVGDILEVAMP	-0.234
HMRMLTKRRQDLLLELLEERGSITVSEVKDMLDASESTIRRDITALDEEGKLVKVFGGAVAAR	-0.272
HMRMSRSARLFDLLHILRSHRRAVSGQALAQQLGISIRTLYRDIASLQAQGAKIEGEPGVGYMLKP	-0.947
HMRMTKQRQAVLDELTRVTDFRSAQQIFEDLHSQGHRVGLATIYRSLQGLAEDGSVDTLRSSDGESLY	-0.0884
HMRMTRQRKVILEELGKVYTHPTADEIYTMVKEKLPNISLGTVYRNLDLLAENNQVLKLETAGNIRRYD	-0.0847
HMRMYDVNEYSDEELHRILDLSSPTDSELEARILQMIQKYKYTNGGDNEKMAVFFENIYHHFFD	-1.5
HMRNAAGGIYGWMTLHQVAETVKLTEEEVIAITNLPAGIPRDVSLKNIEGVNDEELRALLEAYLEKQ	-0.151
